Test results from US20260193377A1.

Legend:
[1] = molecular target: GCC expressed on T84 cells (UniProt P25092); test: flow cytometry on T84 cells expressing GCC, 300 nm [sic], PE-anti human Fc secondary; Blank 30.7
[2] = molecular target: GCC expressed on T84 cells (UniProt P25092); test: flow cytometry on T84 cells expressing GCC, 300 nm [sic], PE-anti human Fc secondary; Blank 15.0

Sequence of GCC expressed on T84 cells (P25092 24-1073 limits assumed): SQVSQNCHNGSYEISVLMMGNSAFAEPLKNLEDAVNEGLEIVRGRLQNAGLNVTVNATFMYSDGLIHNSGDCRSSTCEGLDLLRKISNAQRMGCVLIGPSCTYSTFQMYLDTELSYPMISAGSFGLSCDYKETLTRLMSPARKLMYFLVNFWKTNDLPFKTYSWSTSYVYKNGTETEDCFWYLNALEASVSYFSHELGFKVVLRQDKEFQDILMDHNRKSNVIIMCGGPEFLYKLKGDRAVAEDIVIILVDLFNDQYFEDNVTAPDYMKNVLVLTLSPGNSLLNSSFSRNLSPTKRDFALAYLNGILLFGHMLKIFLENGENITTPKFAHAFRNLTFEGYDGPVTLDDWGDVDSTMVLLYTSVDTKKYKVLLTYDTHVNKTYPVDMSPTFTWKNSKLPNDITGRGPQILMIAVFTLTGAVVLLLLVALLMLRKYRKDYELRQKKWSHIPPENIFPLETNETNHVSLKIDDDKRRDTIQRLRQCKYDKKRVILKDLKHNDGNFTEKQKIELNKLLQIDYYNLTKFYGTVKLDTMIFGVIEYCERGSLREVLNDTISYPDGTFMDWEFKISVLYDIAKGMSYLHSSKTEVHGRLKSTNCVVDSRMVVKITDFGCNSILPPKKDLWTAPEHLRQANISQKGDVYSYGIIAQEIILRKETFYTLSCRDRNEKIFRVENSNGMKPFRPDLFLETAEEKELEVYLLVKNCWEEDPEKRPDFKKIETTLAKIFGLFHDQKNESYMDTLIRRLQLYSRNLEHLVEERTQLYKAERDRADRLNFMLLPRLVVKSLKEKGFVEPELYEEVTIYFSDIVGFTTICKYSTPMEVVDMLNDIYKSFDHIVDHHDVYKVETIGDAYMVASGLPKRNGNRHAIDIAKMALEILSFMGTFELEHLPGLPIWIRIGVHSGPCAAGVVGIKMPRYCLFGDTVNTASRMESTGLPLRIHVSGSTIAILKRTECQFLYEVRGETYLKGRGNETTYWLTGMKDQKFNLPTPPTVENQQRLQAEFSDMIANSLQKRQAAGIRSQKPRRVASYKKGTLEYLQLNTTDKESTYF

Human IgG1 isotype (antibody)
Geometric mean MFI [1]: 30.7 | Geometric mean MFI [2]: 17.7
